Laboratory results from the supplement of paper PMC10724198.
± gives the standard deviation of the averaged measurements.

Each sequence was assayed on Saccharomyces cerevisiae (assay: protein stability index of tFT-peptide fusion (C-terminal peptide) (PSI (0-1 scale)); higher = more stable (slower turnover)). Conditions: genetic background: wild type; temperature: 30 C.
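Also: PSI is a weighted mean of sequencing reads over stability bins, variants kept only with over 10 reads, mCherry proximal and sfGFP distal, peptide attached via GGGS linker.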

Sequence	protein stability index
PCLQQCLLIFLP	0.566 ± 0.015
PCMCKRNKQYRG	0.649 ± 0.016
PCPSVLPISLPH	0.713 ± 0.06
PCRPPSILAPHP	0.739 ± 0.0097
PCSVLVWGVLLP	0.622 ± 0.032
PCYCSAPRRSWA	0.749 ± 0.04
PDCLSLCFSLFP	0.664 ± 0.0071
PDCVLSDENDAG	0.658 ± 0.0076
PDLGRQPGGSET	0.647 ± 0.052
PDYNEIIEYTEG	0.706 ± 0.033
PEEGQNASVRPC	0.694 ± 0.023
PERPPVARATRP	0.718 ± 0.049
PFFLVSPEPLSI	0.666 ± 0.058
PFFPSSFALLRS	0.7166 ± 0.0067
PFFPVALPFPHL	0.7 ± 0.021
PFFSSRLFTLSL	0.731 ± 0.015
PFLCCPRMSHFL	0.705 ± 0.013
PFLPSPPPPVPI	0.712 ± 0.045
PFPAFPPVTSPP	0.85 ± 0.054
PFPLPPPPFHPP	0.691 ± 0.014
PFPPPTDQTAHR	0.728 ± 0.025
PFPPTPSPAPPL	0.7097 ± 0.0025
PFRSFSPPPRAP	0.742 ± 0.17
PFRSPFSSSPTF	0.7772 ± 0.0077
PFSLTTLFSPLL	0.691 ± 0.031
PFSPLVPPLSFS	0.76 ± 0.086

Sequence	protein stability index
PFSSFLSLFPIL	0.7 ± 0.0084
PFVSHLDRWDIR	0.712 ± 0.041
PFYTKSASPSSR	0.669 ± 0.02
PGAHPVTLTIRL	0.647 ± 0.027
PGHRVLKILHLR	0.551 ± 0.055
PGITRKTKKEKK	0.701 ± 0.041
PGLGISHARCCF	0.695 ± 0.016
PGLPFAPLPPPL	0.733 ± 0.014
PGPPPPPPPLYP	0.6947 ± 0.0063
PGPPSPPPPLYP	0.6783 ± 0.0056
PGQRSRGPPGRA	0.737 ± 0.076
PGQSSPLPPDVS	0.653 ± 0.078
PGRSATSCPFLG	0.671 ± 0.019
PGSCGATTRCLH	0.481 ± 0.075
PGWPISNLGHAL	0.634 ± 0.077
PHFLLLEDRPQT	0.705 ± 0.02
PHGPPAHLRSRP	0.737 ± 0.015
PHHPPAHPPTPP	0.683 ± 0.023
PHHPPPPLPCVV	0.632 ± 0.071
PHHRRVVRPPTA	0.704 ± 0.013
PHNTPRPELLPP	0.613 ± 0.11
PHPAPPPNPLVP	0.739 ± 0.017
PHPCSPAPPWPL	0.694 ± 0.028
PHPHRPPRSFLL	0.704 ± 0.1
PHPLPSHPLPPP	0.738 ± 0.023
PHPLSPRPPPSL	0.746 ± 0.013

Sequence	protein stability index
PHPPFLFPPPCP	0.71 ± 0.051
PHPPLPPLLPPA	0.741 ± 0.082
PHPPLPPPPYLL	0.667 ± 0.016
PHPPPSLLPSAP	0.7612 ± 0.0037
PHPTPSLPHSSP	0.827 ± 0.043
PHQCLSFPPRFK	0.744 ± 0.082
PHSASSVSYTLY	0.701 ± 0.052
PHSPSHTPVYPR	0.694 ± 0.011
PHSPSPSWFWPR	0.76 ± 0.058
PHSSFSLAPPIP	0.696 ± 0.01
PHTLPPLPVSPT	0.67 ± 0.05
PHVLAALTSYTP	0.68783 ± 0.00064
PHVSGYTVLIWF	0.5588 ± 0.0054
PICAWGRPRTPM	0.7639 ± 0.0017
PIDHCFPPIPRR	0.737 ± 0.035
PILPTSAPSDPR	0.724 ± 0.12
PIPHHLRVASPA	0.6162 ± 0.00068
PISPPLPRPSPR	0.696 ± 0.012
PIVSISLGIGSS	0.6758 ± 0.001
PKAMRPKLVVFR	0.682 ± 0.024
PKHQPSLLPNHH	0.615 ± 0.026
PKKREKKKKKEK	0.66 ± 0.073
PKSTDVPPVRRE	0.686 ± 0.088
PKVRQLLLTRVL	0.547 ± 0.022
PKYYTTTDRLRV	0.622 ± 0.02
PLAALPLALSLP	0.6575 ± 0.0055

Sequence	protein stability index
PLALPLHLPLPP	0.667 ± 0.034
PLALSPNPLSRT	0.679 ± 0.045
PLAPPHRPALLM	0.568 ± 0.034
PLCLLLLNPPTL	0.682 ± 0.012
PLCVPPRRLFPP	0.716 ± 0.072
PLFFLPLPPPLF	0.6881 ± 0.0046
PLFLLLPALSIP	0.595 ± 0.029
PLFRTPPPRPSP	0.673 ± 0.14
PLFSFLPPPLPP	0.697 ± 0.017
PLGPLLSPLSPP	0.743 ± 0.014
PLGPRFLPLVLP	0.682 ± 0.021
PLGVPPPAPSSP	0.6943 ± 0.0024
PLHPPPPPPPPT	0.69 ± 0.034
PLLHPPPRASLL	0.792 ± 0.13
PLLLPLFSSSPP	0.777 ± 0.085
PLLLYFLPPLPL	0.629 ± 0.039
PLLPYPFPPPLS	0.784 ± 0.04
PLLTFSPLPGLS	0.696 ± 0.034
PLLTPPPVLHHP	0.741 ± 0.035
PLLVLSLRLSPP	0.664 ± 0.013
PLPALRPGAAPH	0.7457 ± 0.0023
PLPAPPSTPSSP	0.715 ± 0.034
PLPAPPTPPLPP	0.763 ± 0.039
PLPARFPPSPPS	0.743 ± 0.074
PLPFLPPPPCPP	0.696 ± 0.036
PLPFPFPLCSQS	0.64 ± 0.1

Sequence	protein stability index
PLPFPPPPPSPY	0.655 ± 0.086
PLPLPSTALPPS	0.632 ± 0.063
PLPPISSFPSLS	0.703 ± 0.028
PLPPLFLPPPPL	0.708 ± 0.021
PLPPLLLPPPLP	0.703 ± 0.046
PLPPPLPQAPPT	0.695 ± 0.021
PLPPPPAPPLPP	0.647 ± 0.024
PLPPPPLLPFVL	0.774 ± 0.085
PLPPPPTPPVPV	0.672 ± 0.015
PLPPRPSPPPPL	0.705 ± 0.013
PLPPSSSPSSLP	0.71 ± 0.077
PLPPTAPPHPPP	0.671 ± 0.096
PLPQVLYPPPPS	0.6905 ± 0.0045
PLPRLRRPAPPH	0.667 ± 0.055
PLPRPPPPSCPP	0.654 ± 0.076
PLPRPPPTATGD	0.687 ± 0.013
PLPRSPRPSAPP	0.622 ± 0.034
PLPSAPLLPPPP	0.686 ± 0.056
PLPVLLLPGHLP	0.733 ± 0.054
PLPYSPPHPVPP	0.701 ± 0.029
PLRDHPAPPHRL	0.665 ± 0.068
PLRESSTRPSLL	0.684 ± 0.055
PLRLPPAPPFPL	0.824 ± 0.075
PLRLPPAPPPPP	0.617 ± 0.015
PLRPAPVLYPAF	0.654 ± 0.012
PLRPPRPPPPPF	0.726 ± 0.052

Sequence	protein stability index
PLRRRPFAPPPP	0.535 ± 0.034
PLSFHPHLTSSP	0.671 ± 0.013
PLSLSPLPSPPL	0.704 ± 0.041
PLSPPAPSPAPR	0.644 ± 0.0071
PLSPPLPPPLSL	0.681 ± 0.031
PLSPPPPPRPPL	0.728 ± 0.019
PLSPPPSLPVPL	0.659 ± 0.051
PLSPRLPRRRLP	0.681 ± 0.017
PLSSLSLPTPPT	0.707 ± 0.062
PLSTHNSLPRVK	0.691 ± 0.061
PLSVSLSLLTPR	0.74 ± 0.13
PLTNKTHRPPDK	0.702 ± 0.0091
PLVPSPSPPPAR	0.727 ± 0.031
PLWRVPPYPPSP	0.691 ± 0.031
PLWVFFRFSPNL	0.662 ± 0.01
PMNCIGTRGHQV	0.65854 ± 0.00043
PMPPPPPACSLD	0.777 ± 0.11
PNAPSLSPPSLF	0.624 ± 0.066
PNASPNPHRSNK	0.708 ± 0.062
PNESFLLPELNH	0.711 ± 0.0083
PNETQTQRPATR	0.683 ± 0.025
PNPPHPPPLPPA	0.595 ± 0.033
PNPRSPRPSPPS	0.687 ± 0.038
PPAFPPPPSPPP	0.636 ± 0.091
PPAHPRPPPPFL	0.762 ± 0.037
PPAPLHLPSLPR	0.705 ± 0.018

Sequence	protein stability index
PPAPPHLPPLPR	0.71574 ± 0.00046
PPAPPLPAPPWA	0.54 ± 0.032
PPAPPPLPPPPP	0.729 ± 0.0092
PPAPPPPTGLCL	0.755 ± 0.092
PPAPRPPLFPYP	0.697 ± 0.043
PPAPRPPSPRPP	0.693 ± 0.033
PPARIFRSLPTP	0.711 ± 0.047
PPASLRRLLPPP	0.654 ± 0.0066
PPASPPLPPPRP	0.689 ± 0.042
PPATTSATRVRP	0.698 ± 0.043
PPAVRRPRRGGN	0.699 ± 0.016
PPCGPPGPPIPP	0.592 ± 0.026
PPCLPPASRPVL	0.699 ± 0.0069
PPDPPPYAPPPP	0.648 ± 0.015
PPDPPWPRSPPA	0.588 ± 0.019
PPFLPLPPPPLP	0.731 ± 0.015
PPFLSAFPPHLP	0.724 ± 0.015
PPFPPPPRPPSS	0.645 ± 0.036
PPFTRLPPPLSS	0.741 ± 0.062
PPGPPRPFPSHL	0.785 ± 0.16
PPHFPLPLPPTP	0.706 ± 0.024
PPHPARHRPPAS	0.7321 ± 0.0016
PPHPPRPPSPHP	0.707 ± 0.051
PPHPSPPPPSHS	0.693 ± 0.039
PPICLCHDPAAH	0.659 ± 0.013
PPLAPPPPPRPP	0.6 ± 0.072

Sequence	protein stability index
PPLASSPPVLAR	0.514 ± 0.018
PPLCPPLPFLHP	0.885 ± 0.11
PPLDLPFPSRSI	0.745 ± 0.0078
PPLFPPPTLPEL	0.738 ± 0.02
PPLGPRPPSNST	0.6522 ± 0.0058
PPLKPRTSRPTI	0.682 ± 0.009
PPLLPLPPPPSP	0.625 ± 0.067
PPLLPLSQPLPH	0.683 ± 0.038
PPLLPPAPLFPP	0.694 ± 0.025
PPLPAPPAPAVQ	0.6991 ± 0.0027
PPLPFAISPPPA	0.6624 ± 0.0017
PPLPHPPLLAPP	0.748 ± 0.15
PPLPLPPPIRPP	0.6388 ± 0.0037
PPLPNLVYHLST	0.6195 ± 0.0054
PPLPPHPPPGQQ	0.697 ± 0.017
PPLPPLPLSLSI	0.742 ± 0.093
PPLPPLPPLPPP	0.72 ± 0.08
PPLPPPPPRLPA	0.636 ± 0.025
PPLPPQLVQDLL	0.72 ± 0.073
PPLPPRPAPIPP	0.663 ± 0.033
